# Experimental data from patent publication US20070053905A1 (Chugai, published 2007).
# Biological target: T1, human PTHrP (1-34) (human)
# T1 construct: Synthetic peptide (Peninsula / Peptide Research Institute); coated on ELISA plates at 1 ug/ml; also called parathyroid hormone related peptide (1-34)
# Assay: ELISA on plate coated with human PTHrP (1-34)
# Method: The ELISA plate for antigen binding measurement was prepared as follows. Each well of a 96 well plate for ELISA was coated with 100 μl of human PTHrP(1-34) (Peptide Research Institute) adjusted to 1 μg/ml concentration by the coating buffer. […] After the plate was incubated at room temperature and washed with PBS-Tween20, 100 μl of alkaline phosphatase (TAGO) conjugated goat anti-man IgG antibody was added. After the plate was incubated at room temperature and washed with PBS-Tween20, 1 mg/ml of a substrate solution (Sigma104, p-nitrophenylphosphate, SIGMA) was added, and, next, 405 nm absorption was measured with a micro plate reader (Bio Rad).
# The ELISA plate for antigen binding measurement was prepared as follows. Each well of a 96 well plate for ELISA was coated with 100 μl of human PTHrP(1-34) adjusted to 1 μg/ml concentration by the coating buffer. After blocking with 200 μl of the dilution buffer, the culture supernatant of the COS-7 cells in which hybrid antibody or humanized antibody was expressed or the purified hybrid antibody or the humanized antibody was stepwise diluted and added to each well. After the plate was incubated at room temperature and washed with PBS-Tween20, 100 μl of alkaline phosphatase (TAGO) conjugated goat anti-man IgG antibody was added. After the plate was incubated at room temperature and washed with PBS-Tween20, 1 mg/ml of a substrate solution (Sigma104, p-nitrophenylphosphate, SIGMA) was added, and 405 nm absorption was then measured on a micro plate reader (Bio Rad).
row,Binder,binding result
1,"chimera #23-57-137-1 antibody with human L chain kappa chain C domain (antibody, IgG1, V domains shown, Mouse V domains joined to human Cγ1 (IgG1) and to the human kappa C domain (from plasmid HEF-PM1k-gk); Expressed in COS-7 cells; also called chimeric antibody; MBC1HcDNA/pCOS1 + MBC1L(κ)/neo) VH: EVQLVESGGDLVKPGGSLKLSCAASGFTFSSYGMSWIRQTPDKRLEWVATISSGGSYTYYPDSVKGRFTISRDNAKNTLYLQMSSLKSEDTAMFYCARQTTMTYFAYWGQGTLVTVSA VL: QLVLTQSSSASFSLGASAKLTCTLSSQHSTYTIEWYQQQPLKPPKYVMDLKQDGSHSTGDGIPDRFSGSSSGADRYLSISNIQPEDEAMYICGVGDTIKEQFVYVFGGGTKVTVLG",binds
2,"chimera #23-57-137-1 antibody with human L chain lambda chain C domain (antibody, IgG1, V domains shown, Expressed in COS-7 cells; also called chimeric antibody; MBC1HcDNA/pCOS1 + MBC1L(λ)/neo) VH: EVQLVESGGDLVKPGGSLKLSCAASGFTFSSYGMSWIRQTPDKRLEWVATISSGGSYTYYPDSVKGRFTISRDNAKNTLYLQMSSLKSEDTAMFYCARQTTMTYFAYWGQGTLVTVSA VL: QLVLTQSSSASFSLGASAKLTCTLSSQHSTYTIEWYQQQPLKPPKYVMDLKQDGSHSTGDGIPDRFSGSSSGADRYLSISNIQPEDEAMYICGVGDTIKEQFVYVFGGGTKVTVLG",binds
3,"humanized #23-57-137-1 antibody with H chain version ""a"" and L chain version ""s"" (antibody, V domains shown, Human Cγ1 (IgG1) and human lambda C domain; also called hMBC1HcDNA/pCOS1 + hMBC1Lsλ/pCOS1) VH: QVQLVESGGGVVQPGRSLRLSCAASGFTFSSYGMSWVRQAPGKGLEWVATISSGGSYTYYPDSVKGRFTISRDNSKNTLYLQMNSLRAEDTAVYYCARQTTMTYFAYWGQGTLVTVSS VL: QLVLTQSPSASASLGASVKLTCTLSSQHSTYTIEWYQQQPEKGPKYVMDLKQDGSHSTGDGIPDRFSGSSSGAERYLTISSLQSEDEADYICGVGDTIKEQFVYVFGGGTKLTVLG",binds
4,"mouse FR1, 2/human FR3, 4 hybrid antibody (L chain m/hMBC1Ldλ) (antibody, V domains shown, Human Cγ1 and human lambda C domain; Expressed in COS-7 cells; also called hMBC1HcDNA/pCOS1 + m/hMBC1Ldλ/neo) VH: QVQLVESGGGVVQPGRSLRLSCAASGFTFSSYGMSWVRQAPGKGLEWVATISSGGSYTYYPDSVKGRFTISRDNSKNTLYLQMNSLRAEDTAVYYCARQTTMTYFAYWGQGTLVTVSS VL: QLVLTQSSSASFSLGASAKLTCTLSSQHSTYTIEWYQQQPLKPPKYVMDLKQDGSHSTGDGIPDRFSGSSSGAERYLTISSLQSEDEADYICGVGDTIKEQFVYVFGGGTKLTVL",binds
5,"humanized #23-57-137-1 antibody with H chain version ""a"" and L chain version ""t"" (antibody, IgG1, V domains shown, Human Cγ1 (IgG1) and human lambda C domain; Expressed in COS-7 cells; also called hMBC1HcDNA/pCOS1 + hMBC1Ltλ/pCOS1) VH: QVQLVESGGGVVQPGRSLRLSCAASGFTFSSYGMSWVRQAPGKGLEWVATISSGGSYTYYPDSVKGRFTISRDNSKNTLYLQMNSLRAEDTAVYYCARQTTMTYFAYWGQGTLVTVSS VL: QLVLTQSPSASASLGASVKLTCTLSSQHSTYTIEWYQQQPEKGPRYVMDLKQDGSHSTGDGIPDRFSGSSSGAERYLTISSLQSEDEADYICGVGDTIKEQFVYVFGGGTKLTVLG",binds
6,"humanized #23-57-137-1 antibody with H chain version ""a"" and L chain version ""q"" (antibody, IgG1, V domains shown, Human Cγ1 (IgG1) and human lambda C domain; also called hMBC1HcDNA + hMBC1Lqλ; FERM BP-5629 / FERM BP-5630) VH: QVQLVESGGGVVQPGRSLRLSCAASGFTFSSYGMSWVRQAPGKGLEWVATISSGGSYTYYPDSVKGRFTISRDNSKNTLYLQMNSLRAEDTAVYYCARQTTMTYFAYWGQGTLVTVSS VL: QLVLTQSPSASASLGASVKLTCTLSSQHSTYTIEWYQQQPEKGPKYLMDLKQDGSHSTGDGIPDRFSGSSSGAERYLTISSLQSEDEADYICGVGDTIKEQFVYVFGGGTKLTVLG",binds
7,"antibody in which humanized H chain version ""a"" was combined with a chimera L chain (antibody, V domains shown, H chain has human Cγ1; also called humanized H chain version a + chimera L chain) VH: QVQLVESGGGVVQPGRSLRLSCAASGFTFSSYGMSWVRQAPGKGLEWVATISSGGSYTYYPDSVKGRFTISRDNSKNTLYLQMNSLRAEDTAVYYCARQTTMTYFAYWGQGTLVTVSS VL: QLVLTQSSSASFSLGASAKLTCTLSSQHSTYTIEWYQQQPLKPPKYVMDLKQDGSHSTGDGIPDRFSGSSSGADRYLSISNIQPEDEAMYICGVGDTIKEQFVYVFGGGTKVTVLG",binds
8,"humanized #23-57-137-1 antibody with H chain version ""a"" and L chain version ""j"" (antibody, IgG1, V domains shown, Human Cγ1 (IgG1) and human lambda C domain; Expressed in COS-7 cells; also called hMBC1HcDNA/pCOS1 + hMBC1Ljλ/pCOS1) VH: QVQLVESGGGVVQPGRSLRLSCAASGFTFSSYGMSWVRQAPGKGLEWVATISSGGSYTYYPDSVKGRFTISRDNSKNTLYLQMNSLRAEDTAVYYCARQTTMTYFAYWGQGTLVTVSS VL: QLVLTQSPSASASLGASVKLTCTLSSQHSTYTIEWYQQQPEKGPKYLMDLKQDGSHSTGDGIPDRFSGSSSGAERYLTISSLQSEDEADYYCGVGDTIKEQFVYVFGGGTKLTVLG",binds

# Second part, the binder after the results:
row,binding result,Binder
1,binds,"humanized #23-57-137-1 antibody with H chain version ""a"" and L chain version ""o"" (antibody, IgG1, V domains shown, Human Cγ1 (IgG1) and human lambda C domain; Expressed in COS-7 cells; also called hMBC1HcDNA/pCOS1 + hMBC1Loλ/pCOS1) VH: QVQLVESGGGVVQPGRSLRLSCAASGFTFSSYGMSWVRQAPGKGLEWVATISSGGSYTYYPDSVKGRFTISRDNSKNTLYLQMNSLRAEDTAVYYCARQTTMTYFAYWGQGTLVTVSS VL: QLVLTQSPSASASLGASVKLTCTLSSQHSTYTIEWYQQQPEKGPRYVMDLKQDGSHSTGDGIPDRFSGSSSGAERYLTISSLQSEDEADYYCGVGDTIKEQFVYVFGGGTKLTVLG"
2,binds,"human FR1/mouse FR2, 3, 4 hybrid antibody (L chain hmmMBC1L(λ)) (antibody, V domains shown, Human Cγ1 and human lambda C domain; Expressed in COS-7 cells; also called hMBC1HcDNA/pCOS1 + hmmMBC1L(λ)/neo) VH: QVQLVESGGGVVQPGRSLRLSCAASGFTFSSYGMSWVRQAPGKGLEWVATISSGGSYTYYPDSVKGRFTISRDNSKNTLYLQMNSLRAEDTAVYYCARQTTMTYFAYWGQGTLVTVSS VL: QLVLTQSPSASASLGASVKLTCTLSSQHSTYTIEWYQQQPLKPPKYVMDLKQDGSHSTGDGIPDRFSGSSSGADRYLSISNIQPEDEAMYICGVGDTIKEQFVYVFGGGTKVTVL"
3,binds,"humanized #23-57-137-1 antibody with H chain version ""a"" and L chain version ""l"" (antibody, IgG1, V domains shown, Human Cγ1 (IgG1) and human lambda C domain; Expressed in COS-7 cells; also called hMBC1HcDNA/pCOS1 + hMBC1Llλ/pCOS1) VH: QVQLVESGGGVVQPGRSLRLSCAASGFTFSSYGMSWVRQAPGKGLEWVATISSGGSYTYYPDSVKGRFTISRDNSKNTLYLQMNSLRAEDTAVYYCARQTTMTYFAYWGQGTLVTVSS VL: QLVLTQSPSASASLGASVKLTCTLSSQHSTYTIEWYQQQPEKGPKYVMDLKQDGSHSTGDGIPDRFSGSSSGAERYLTISSLQSEDEADYYCGVGDTIKEQFVYVFGGGTKLTVLG"
4,binds,"humanized #23-57-137-1 antibody with H chain version ""a"" and L chain version ""r"" (antibody, V domains shown, Human Cγ1 (IgG1) and human lambda C domain; also called hMBC1HcDNA + hMBC1Lrλ) VH: QVQLVESGGGVVQPGRSLRLSCAASGFTFSSYGMSWVRQAPGKGLEWVATISSGGSYTYYPDSVKGRFTISRDNSKNTLYLQMNSLRAEDTAVYYCARQTTMTYFAYWGQGTLVTVSS VL: QLVLTQSPSASASLGASVKLTCTLSSQHSTYTIEWYQQQPEKGPRYLMDLKQDGSHSTGDGIPDRFSGSSSGAERYLTISSLQSEDEADYICGVGDTIKEQFVYVFGGGTKLTVLG"
5,binds,"mouse FR1, 2/human FR3, 4 hybrid antibody (L chain m/hMBC1Laλ) (antibody, V domains shown, Human Cγ1 and human lambda C domain; Expressed in COS-7 cells; also called hMBC1HcDNA/pCOS1 + m/hMBC1Laλ/neo) VH: QVQLVESGGGVVQPGRSLRLSCAASGFTFSSYGMSWVRQAPGKGLEWVATISSGGSYTYYPDSVKGRFTISRDNSKNTLYLQMNSLRAEDTAVYYCARQTTMTYFAYWGQGTLVTVSS VL: QLVLTQSSSASFSLGASAKLTCTLSSQHSTYTIEWYQQQPLKPPKYVMDLKQDGSHSTGDGIPDRFSGSSSGAERYLTISSLQSEDEADYYCGVGDTIKEQFVYVFGGGTKLTVL"
6,binds,"humanized #23-57-137-1 antibody with H chain version ""a"" and L chain version ""m"" (antibody, IgG1, V domains shown, Human Cγ1 (IgG1) and human lambda C domain; Expressed in COS-7 cells; also called hMBC1HcDNA/pCOS1 + hMBC1Lmλ/pCOS1) VH: QVQLVESGGGVVQPGRSLRLSCAASGFTFSSYGMSWVRQAPGKGLEWVATISSGGSYTYYPDSVKGRFTISRDNSKNTLYLQMNSLRAEDTAVYYCARQTTMTYFAYWGQGTLVTVSS VL: QLVLTQSPSASASLGASVKLTCTLSSQHSTYTIEWYQQQPEKGPRYLMDLKQDGSHSTGDGIPDRFSGSSSGAERYLTISSLQSEDEADYYCGVGDTIKEQFVYVFGGGTKLTVLG"

# Biological target: T1, human PTHrP (1-34)
# Assay: solid phase RIA of hybridoma culture supernatant
# Method: Screening of hybridomas was performed by measuring and selecting the existence of a PTHrP recognizing antibody by applying solid phase RIA method to the culture supernatant of the wells where growth was recognized in HAT culture medium.
row,binding result,Binder
1,binds,"mouse monoclonal antibody #23-57-137-1 (antibody, V domains shown, Mouse hybridoma antibody; The L chain is a mouse lambda chain; the H chain was cloned with a mouse gamma-1 primer (MHC-G1); also called anti-PTHrP MoAb) VH: EVQLVESGGDLVKPGGSLKLSCAASGFTFSSYGMSWIRQTPDKRLEWVATISSGGSYTYYPDSVKGRFTISRDNAKNTLYLQMSSLKSEDTAMFYCARQTTMTYFAYWGQGTLVTVSA VL: QLVLTQSSSASFSLGASAKLTCTLSSQHSTYTIEWYQQQPLKPPKYVMDLKQDGSHSTGDGIPDRFSGSSSGADRYLSISNIQPEDEAMYICGVGDTIKEQFVYVFGGGTKVTVLG"
